This note sets out measurements from paper PMC4333827.

For orientation: stoichiometry N means the number of molecules, sites or subunits per partner or assembly.

The target in test [1] is C-terminal helical domain-deleted (ΔH-domain) form of CoMsrA (residues 1-144) (Clostridium oremlandii) (UniProt A8MI53). Nature of the test: SEC; gel filtration on Superdex S75 16/60 at the final purification step; 10 mM Tris-HCl pH 8.0, 100 mM NaCl. (In gel filtration, larger molecules generally elute earlier.)
Test [2] shares this target. Described as above. The source holds these as a separate data set.
The target is the same in test [3]. Nature of the test: native gel or EMSA; native-PAGE; 0.2 mg/ml protein in 10 mM Tris-HCl pH 8.0, 100 mM NaCl; without and with 10 mM DTT. (In EMSA bound probe runs differently from free probe, usually more slowly.)
Test [4] shares this target. Nature of the test: SEC-MALS; SEC-MALLS; WTC-015S5 column, 20 mM Tris-HCl pH 8.0, 100 mM NaCl, 298 K, 0.5 ml/min; 2.5 mg/ml full-length, 1.5 mg/ml ΔH-domain.

Take “C-terminal helical domain-deleted (ΔH-domain) form of CoMsrA (residues 1-144) (from UniProt A8MI53 1-144) (domain or fragment)”: the stoichiometry N in test [1] came out at 2; in test [2], 4; in test [3], 2; in test [4], 2.
